Test results: patent US20160272683A1 (Novo Nordisk, published 2016)
Numbered stars: 1 amine (or outer) side, 2 acyl side, 3 side chain; on linkers, the order of the positions; unused ones are H or OH. Side chains are listed from the residue outwards. Ends that are not written are not given here. * marks the point of attachment. C20 diacid = O=C(O)CCCCCCCCCCCCCCCCCCC(=O)*; C18 diacid = O=C(O)CCCCCCCCCCCCCCCCC(=O)*; C16 diacid = O=C(O)CCCCCCCCCCCCCCC(=O)*; γGlu = O=C(O)[C@H](CCC(=O)[*:2])N[*:1]; C14 diacid = O=C(O)CCCCCCCCCCCCC(=O)*; AEEA = NCCOCCOCC(=O)O

T1: human calcitonin receptor (human, UniProt P30988 25-474)
T1 sequence (looked up): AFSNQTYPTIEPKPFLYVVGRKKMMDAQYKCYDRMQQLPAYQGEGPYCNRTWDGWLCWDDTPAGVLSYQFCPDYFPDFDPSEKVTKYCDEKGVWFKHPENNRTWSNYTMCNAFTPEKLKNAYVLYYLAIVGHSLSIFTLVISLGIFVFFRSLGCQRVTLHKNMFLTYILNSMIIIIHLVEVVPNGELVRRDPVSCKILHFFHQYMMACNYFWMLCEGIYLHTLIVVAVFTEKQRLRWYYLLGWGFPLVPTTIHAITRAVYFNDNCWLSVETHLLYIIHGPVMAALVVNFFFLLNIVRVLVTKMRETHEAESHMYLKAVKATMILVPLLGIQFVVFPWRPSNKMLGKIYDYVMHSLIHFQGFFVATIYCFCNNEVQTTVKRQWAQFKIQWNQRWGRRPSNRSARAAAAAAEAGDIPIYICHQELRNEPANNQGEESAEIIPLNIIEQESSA

T2: human amylin 3(a) receptor (human calcitonin receptor co-expressed with RAMP-3) (human, UniProt P30988 25-474; O60896 24-148, limits assumed)
T2 sequence (looked up) 1: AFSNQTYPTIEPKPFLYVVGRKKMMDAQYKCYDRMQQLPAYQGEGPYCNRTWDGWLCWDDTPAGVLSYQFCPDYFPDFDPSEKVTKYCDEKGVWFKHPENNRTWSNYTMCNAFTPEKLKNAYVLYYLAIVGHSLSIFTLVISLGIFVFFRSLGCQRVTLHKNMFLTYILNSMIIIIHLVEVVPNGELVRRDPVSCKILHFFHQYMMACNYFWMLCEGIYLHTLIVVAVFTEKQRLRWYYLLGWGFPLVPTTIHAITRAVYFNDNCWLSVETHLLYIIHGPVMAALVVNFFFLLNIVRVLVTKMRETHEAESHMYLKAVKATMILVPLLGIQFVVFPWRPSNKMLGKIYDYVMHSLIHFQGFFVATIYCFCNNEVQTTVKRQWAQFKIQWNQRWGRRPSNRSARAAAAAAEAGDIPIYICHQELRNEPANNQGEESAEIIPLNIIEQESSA
T2 sequence (looked up) 2: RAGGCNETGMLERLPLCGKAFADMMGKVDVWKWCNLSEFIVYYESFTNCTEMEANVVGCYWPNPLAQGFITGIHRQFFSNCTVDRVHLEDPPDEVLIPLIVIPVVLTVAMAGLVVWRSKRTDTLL


How the values were obtained:
[1] = biological target: T1, human calcitonin receptor; assay: cell-based or functional assay
[2] = biological target: T2, human amylin 3(a) receptor (human …); assay: cell-based or functional assay

Binder	hCTR funct. EC50 (pM) [1] [pM]	hAmylin-R funct. EC50 (pM) [2] [pM]
{C16 diacid}-ASELSTAALGRLSAELHELATLPRTETGSGSP-NH2 [[N-terminal(C16 diacid), des1, 30S, 31G]mimylin]	10	10
{C14 diacid}-ASELSTAALGRLSAELHELATLPRTETGSGSP-NH2 [[N-terminal(C14 diacid), des1, 30S, 31G]mimylin]	5	7
{C20 diacid-γGlu}-AASELSTAALGRLSAELHELATYPRTETGSGSP-NH2 (SMILES CC(C)C[C@H](NC(=O)[C@H](C)NC(=O)[C@H](C)NC(=O)[C@@H](NC(=O)[C@H](CO)NC(=O)[C@H](CC(C)C)NC(=O)[C@H](CCC(=O)O)NC(=O)[C@H](CO)NC(=O)[C@H](C)NC(=O)[C@H](C)NC(=O)CC[C@H](NC(=O)CCCCCCCCCCCCCCCCCCC(=O)O)C(=O)O)[C@@H](C)O)C(=O)NCC(=O)N[C@@H](CCCNC(=N)N)C(=O)N[C@@H](CC(C)C)C(=O)N[C@@H](CO)C(=O)N[C@@H](C)C(=O)N[C@@H](CCC(=O)O)C(=O)N[C@@H](CC(C)C)C(=O)N[C@@H](Cc1c[nH]cn1)C(=O)N[C@@H](CCC(=O)O)C(=O)N[C@@H](CC(C)C)C(=O)N[C@@H](C)C(=O)N[C@H](C(=O)N[C@@H](Cc1ccc(O)cc1)C(=O)N1CCC[C@H]1C(=O)N[C@@H](CCCNC(=N)N)C(=O)N[C@H](C(=O)N[C@@H](CCC(=O)O)C(=O)N[C@H](C(=O)NCC(=O)N[C@@H](CO)C(=O)NCC(=O)N[C@@H](CO)C(=O)N1CCC[C@H]1C(N)=O)[C@@H](C)O)[C@@H](C)O)[C@@H](C)O) [[N-terminal(C20 diacid-gGlu), 1A, 23Y, 30S, 31G]mimylin]	22	20
{C14 diacid-γGlu-γGlu-AEEA-AEEA-AEEA-AEEA}-EASELSTAALGRLSAELHELATLPRTETGPESP-NH2 [[N-terminal(C14 diacid-2xgGlu-4xOEG)]mimylin]	7	27
ASELSTAALGRLSAK([γGlu-C20 diacid])LHELATLPRTETGSGSP-NH2 (N-terminus assumed; SMILES CC(C)C[C@H](NC(=O)[C@H](C)NC(=O)[C@H](C)NC(=O)[C@@H](NC(=O)[C@H](CO)NC(=O)[C@H](CC(C)C)NC(=O)[C@H](CCC(=O)O)NC(=O)[C@H](CO)NC(=O)[C@H](C)N)[C@@H](C)O)C(=O)NCC(=O)N[C@@H](CCCNC(=N)N)C(=O)N[C@@H](CC(C)C)C(=O)N[C@@H](CO)C(=O)N[C@@H](C)C(=O)N[C@@H](CCCCNC(=O)CC[C@H](NC(=O)CCCCCCCCCCCCCCCCCCC(=O)O)C(=O)O)C(=O)N[C@@H](CC(C)C)C(=O)N[C@@H](Cc1c[nH]cn1)C(=O)N[C@@H](CCC(=O)O)C(=O)N[C@@H](CC(C)C)C(=O)N[C@@H](C)C(=O)N[C@H](C(=O)N[C@@H](CC(C)C)C(=O)N1CCC[C@H]1C(=O)N[C@@H](CCCNC(=N)N)C(=O)N[C@H](C(=O)N[C@@H](CCC(=O)O)C(=O)N[C@H](C(=O)NCC(=O)N[C@@H](CO)C(=O)NCC(=O)N[C@@H](CO)C(=O)N1CCC[C@H]1C(N)=O)[C@@H](C)O)[C@@H](C)O)[C@@H](C)O) [[des1, 16K(C20 diacid-gGlu), 30S, 31G]mimylin]	31	22
ASK([γGlu-C20 diacid])LSTAALGRLSAELHELATLPRTETGSGSP-NH2 (N-terminus assumed; SMILES CC(C)C[C@H](NC(=O)[C@H](C)NC(=O)[C@H](C)NC(=O)[C@@H](NC(=O)[C@H](CO)NC(=O)[C@H](CC(C)C)NC(=O)[C@H](CCCCNC(=O)CC[C@H](NC(=O)CCCCCCCCCCCCCCCCCCC(=O)O)C(=O)O)NC(=O)[C@H](CO)NC(=O)[C@H](C)N)[C@@H](C)O)C(=O)NCC(=O)N[C@@H](CCCNC(=N)N)C(=O)N[C@@H](CC(C)C)C(=O)N[C@@H](CO)C(=O)N[C@@H](C)C(=O)N[C@@H](CCC(=O)O)C(=O)N[C@@H](CC(C)C)C(=O)N[C@@H](Cc1c[nH]cn1)C(=O)N[C@@H](CCC(=O)O)C(=O)N[C@@H](CC(C)C)C(=O)N[C@@H](C)C(=O)N[C@H](C(=O)N[C@@H](CC(C)C)C(=O)N1CCC[C@H]1C(=O)N[C@@H](CCCNC(=N)N)C(=O)N[C@H](C(=O)N[C@@H](CCC(=O)O)C(=O)N[C@H](C(=O)NCC(=O)N[C@@H](CO)C(=O)NCC(=O)N[C@@H](CO)C(=O)N1CCC[C@H]1C(N)=O)[C@@H](C)O)[C@@H](C)O)[C@@H](C)O) [[des1, 4K(C20 diacid-gGlu), 30S, 31G]mimylin]	34	39
{C14 diacid}-EASELSTAALGRLSAELHELATLPRTETGPESP-NH2 [[N-terminal(C14 diacid)]mimylin]	2	6
ASELSTAALGRLSAELHK([γGlu-C20 diacid])LATLPRTETGSGSP-NH2 (N-terminus assumed; SMILES CC(C)C[C@H](NC(=O)[C@H](C)NC(=O)[C@H](C)NC(=O)[C@@H](NC(=O)[C@H](CO)NC(=O)[C@H](CC(C)C)NC(=O)[C@H](CCC(=O)O)NC(=O)[C@H](CO)NC(=O)[C@H](C)N)[C@@H](C)O)C(=O)NCC(=O)N[C@@H](CCCNC(=N)N)C(=O)N[C@@H](CC(C)C)C(=O)N[C@@H](CO)C(=O)N[C@@H](C)C(=O)N[C@@H](CCC(=O)O)C(=O)N[C@@H](CC(C)C)C(=O)N[C@@H](Cc1c[nH]cn1)C(=O)N[C@@H](CCCCNC(=O)CC[C@H](NC(=O)CCCCCCCCCCCCCCCCCCC(=O)O)C(=O)O)C(=O)N[C@@H](CC(C)C)C(=O)N[C@@H](C)C(=O)N[C@H](C(=O)N[C@@H](CC(C)C)C(=O)N1CCC[C@H]1C(=O)N[C@@H](CCCNC(=N)N)C(=O)N[C@H](C(=O)N[C@@H](CCC(=O)O)C(=O)N[C@H](C(=O)NCC(=O)N[C@@H](CO)C(=O)NCC(=O)N[C@@H](CO)C(=O)N1CCC[C@H]1C(N)=O)[C@@H](C)O)[C@@H](C)O)[C@@H](C)O) [[des1, 19K(C20 diacid-gGlu), 30S, 31G]mimylin]	19	28
{C14 diacid-γGlu}-ASELSTAALGRLSAELHELATLPRTETGSGSP-NH2 [[N-terminal(C14 diacid-gGlu), des1, 30S, 31G]mimylin]	4	6
{C20 diacid-γGlu}-ASELSTAALGRLSAELHELATYPRTETGSGSP-NH2 (SMILES CC(C)C[C@H](NC(=O)[C@H](C)NC(=O)[C@H](C)NC(=O)[C@@H](NC(=O)[C@H](CO)NC(=O)[C@H](CC(C)C)NC(=O)[C@H](CCC(=O)O)NC(=O)[C@H](CO)NC(=O)[C@H](C)NC(=O)CC[C@H](NC(=O)CCCCCCCCCCCCCCCCCCC(=O)O)C(=O)O)[C@@H](C)O)C(=O)NCC(=O)N[C@@H](CCCNC(=N)N)C(=O)N[C@@H](CC(C)C)C(=O)N[C@@H](CO)C(=O)N[C@@H](C)C(=O)N[C@@H](CCC(=O)O)C(=O)N[C@@H](CC(C)C)C(=O)N[C@@H](Cc1c[nH]cn1)C(=O)N[C@@H](CCC(=O)O)C(=O)N[C@@H](CC(C)C)C(=O)N[C@@H](C)C(=O)N[C@H](C(=O)N[C@@H](Cc1ccc(O)cc1)C(=O)N1CCC[C@H]1C(=O)N[C@@H](CCCNC(=N)N)C(=O)N[C@H](C(=O)N[C@@H](CCC(=O)O)C(=O)N[C@H](C(=O)NCC(=O)N[C@@H](CO)C(=O)NCC(=O)N[C@@H](CO)C(=O)N1CCC[C@H]1C(N)=O)[C@@H](C)O)[C@@H](C)O)[C@@H](C)O) [[N-terminal(C20 diacid-gGlu), des1, 23Y, 30S, 31G]mimylin]	23	22
{C18 diacid-γGlu}-ASELSTAALGRLSAELHELATYPRTETGSGSP-NH2 (SMILES CC(C)C[C@H](NC(=O)[C@H](C)NC(=O)[C@H](C)NC(=O)[C@@H](NC(=O)[C@H](CO)NC(=O)[C@H](CC(C)C)NC(=O)[C@H](CCC(=O)O)NC(=O)[C@H](CO)NC(=O)[C@H](C)NC(=O)CC[C@H](NC(=O)CCCCCCCCCCCCCCCCC(=O)O)C(=O)O)[C@@H](C)O)C(=O)NCC(=O)N[C@@H](CCCNC(=N)N)C(=O)N[C@@H](CC(C)C)C(=O)N[C@@H](CO)C(=O)N[C@@H](C)C(=O)N[C@@H](CCC(=O)O)C(=O)N[C@@H](CC(C)C)C(=O)N[C@@H](Cc1c[nH]cn1)C(=O)N[C@@H](CCC(=O)O)C(=O)N[C@@H](CC(C)C)C(=O)N[C@@H](C)C(=O)N[C@H](C(=O)N[C@@H](Cc1ccc(O)cc1)C(=O)N1CCC[C@H]1C(=O)N[C@@H](CCCNC(=N)N)C(=O)N[C@H](C(=O)N[C@@H](CCC(=O)O)C(=O)N[C@H](C(=O)NCC(=O)N[C@@H](CO)C(=O)NCC(=O)N[C@@H](CO)C(=O)N1CCC[C@H]1C(N)=O)[C@@H](C)O)[C@@H](C)O)[C@@H](C)O) [[N-terminal(C18 diacid-gGlu), des1, 23Y, 30S, 31G]mimylin]	10	10
